A short description of the data set: yeast display, Sf9 membrane polyspecificity reagent, FACS + sequencing; frameworks hold sequencing errors. In short, it runs like this: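 After 36–48 hours of galactose induction, yeast (Saccharomyces cerevisiae BJ5465) displaying a synthetic nanobody library were stained at 4 °C for 1 hour with 10% biotinylated, detergent-solubilized Sf9 membrane reagent. Streptavidin microbeads enriched the stained cells before FACS sorting into low and high (top ~1%) gates on anti-HA and streptavidin fluorescence. Each clone's polyreactivity label reflects its gate of origin.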
“QVQLVESRGGLVQAGGSLRLSCAASGIIFPRYAMGRYRQAPRKERELVAAITRRGGRTYYADSVKGRFTISRDNANNTVYLQMNSLKPEDTAVYYCNADFISTRPPKATDEDYWGQGTQVTVSS”: the “polyreactivity (PSR sort gate)” value is “high polyreactivity”.

As to “QDQLVESGGGLVQAGGSLRLICAASGGIFLVYTMGWYRQAPGKERELVAAITSGGSTKYADSVKGRFTISRDNAKNTVYLQMNSLKPEDTAVYYCAAYRRSWRYPSVRYYKYDYWGQGTQVTVSS”, the “polyreactivity (PSR sort gate)” value was “high polyreactivity”.

Turning to “QVQLVESGGGLVQAGGSLRLSCAASGSTLVYNDMGWYRQAPGKEREFVAAIRSNDGSTYYADSVKGRFTISRDNAKNTVYLQMNSLKPEDTAVYYCNARNQVYKIYYSDYRRYDYWGQGTQVTVSS”, the “polyreactivity (PSR sort gate)” value is listed as “low polyreactivity”.

In the case of “QDQLVESVGGLDQAGVSLRLSCAASGFIFRAYAMGWYRQAPGKERELVAAITKRSGTTYYADSVKGRFTISRDNAKNTVYLQMNSLKPEDTAVYYCAAKTLYNSGTQDRAMGYWGQGTQVTVSS”, the “polyreactivity (PSR sort gate)” value is on record as “high polyreactivity”.

On to “QVQLVESGGGLVQAGGSLRLSCAPSGRIFTHNVRGWYRQAPGKERELVAAISASGGSTYYADSVKGRFTISRDNAKNTVYLQMNSLKPEDTAVYYCNAEWAVRYPGYDYWGQGTQVTVSS”, for which the “polyreactivity (PSR sort gate)” value was “low polyreactivity”.

“QVQLVESGGGLVQAGGSLRLSCAASGSTFYRYAKGRYRQPPGKERELVASITRNVGSTYYADSVKGRFTISRDNAKNTVYLQMKSVKPEDTAVYFCAAKSGSFVHGGYQTPVYGSDYWGQGSQVTVSS”: the “polyreactivity (PSR sort gate)” value is on record as “high polyreactivity”.

For the sequence “QVQLVESVGGLVQAGGSLRLICDASGFTFYAYAIGWYRQAPGKERELVAAITYIGSTYYADSVKGRFTISRDNAKNTVYLQMNSLKPEETAVYYCAVEFLPSFNRYDYWGQGTQVTVSS”, the “polyreactivity (PSR sort gate)” value is “low polyreactivity”.

“QVQLVDSGGGLVQAGGSLRLSCAASGLIFTYYAMGWYRQAPGKERELVAAINYSGGSTYYADSVKGRFTISRDNAKNSVYLQMNSLKPEDTAVYYCAARRVTQTEGPMGYWGQGTQVTVSS”: the “polyreactivity (PSR sort gate)” value is reported as “low polyreactivity”.

Turning to “QVQLVESGGGLVQAGGSLRLSCAATGRIFIAYAMGWYRQAPGKEREFVAAISSGGGSTYYADSVKGRFTISRDNAKNTVYLQMNSLKPEDTAVYYCGAWTLYWSHTTWSYDYWGQGTQGTVSS”, the “polyreactivity (PSR sort gate)” value was “low polyreactivity”.

Take “QVQLVESGGGLVQAGGSLRLSCAASGRIFEPYTMGWYRQAPGKEREFVATITASGDSTYYADSVKGRFTISRDNAKNTVYLQMNSLKPEDTAVYYCAAAPFGGYEYDYWGQGTQVTVSS”: the “polyreactivity (PSR sort gate)” value is on record as “high polyreactivity”.

As to “QVQLVESGGGLVQAGGRLRLSCAASARIFYSKVMGWYRQAPGKERELVAAISGRTGGTYYADSVKGRFTISRDNAKNTVYLQMNSLKPEDTAVYYCAARVIDYYGSGPYDYWGQGTQVTVSS”, the “polyreactivity (PSR sort gate)” value is on record as “low polyreactivity”.

Turning to “QVQLVESGGGLVQAGGSLRLSCAASGRLFVYNAMGWYRQAPGKEREFVATITSSGGRTYYADSVKGRFTISRDNAKNTVYLQMNSLKPEDSAVYYCAARPQNNGRNPVYRYNYWGQGTQVTVSS”, the “polyreactivity (PSR sort gate)” value is recorded as “high polyreactivity”.

For the sequence “QVQLQESGGGLVQAGGSPRLSCAASDNIFPDSVMCWYRQAPGKERELVATIGFGATTNYADSVKGRFTISRDNAKNTVYLQMNSLKPEDTAVYYCAAVPLNYEYFCYWGQGTQVTVSS”, the “polyreactivity (PSR sort gate)” value was “low polyreactivity”.

For “QVQLVESGGGLVQAGGSLRLSCAASGYTVYANAMGWYRQAPGKEREFVASITWSGGSTYYADSVKGRFSISRDNAKNPVYLQMNSLKPEDTAVYYCAAESWFKYDYWGQGTQVTVSS”, the “polyreactivity (PSR sort gate)” value is reported as “low polyreactivity”.

On to “QVQLVESGGGLVQAGGSLRLSSAASGSIFRIYAMGWYRQAPGKERELVAAMSSGGSTYYADSVKGRFTISRDNAKNTVYLQMNSLKPEDTAVYYCAAYPEYVSGAWYDYWGQGTQVTLSS”, for which the “polyreactivity (PSR sort gate)” value was “low polyreactivity”.

Turning to “QVQLVESGGGIVQAGGSLRVSCAASGRTFYSSAMGWYRQAPGKERELVAAISWNGGSTYYADSVKGRFTISRDNAKNTVYLQMNSLNPEDTAVYYCAATYLLRGDAYYSWGQGTQVTVSS”, the “polyreactivity (PSR sort gate)” value was “high polyreactivity”.

Consider “QVQLVESGGGLVQAGGSLRLSCAASGFTFRQYAMGWYRQAPGKERELVAAISRSGSRTYYADSVKGRFTISRDNAKNTVYLQMNSLKPEDTAVYYCNAVFSTFTGEYYWGQGSQVTVSS”, for which the “polyreactivity (PSR sort gate)” value is reported as “high polyreactivity”.

Turning to “QVQLVESGGRLVQAGGRLRLSCAASGSIFLYNARGWYRQAPGKERELVAAINYSGVSTYYADSVKGRFTISRDNAKNTVYLQMNSLKPEDTAVYYCARRWNAFGSKGGYWGQGTQVTVSS”, the “polyreactivity (PSR sort gate)” value is reported as “high polyreactivity”.

Take “QVQLVESGGGLVQAGGSLLLSCAATGITFVPNAMGWYRQAPGKERELVDAISTRGGSTYYADSVKGRFTISRDNAKNTVYLQMNSLKPEDTAVYYCNALITGRWFDYWGQGTQVTVSS”: the “polyreactivity (PSR sort gate)” value was “high polyreactivity”.

As to “QVQLVESGGGLVQAGGSLRLSCAASGRTFRGNAMGWYRQAPGKERELVAAISGSGGRTYYADSVKGRFTISRDNAKNTVYLKMNSLKPEDTAVFYCAAKRGKTYQRFDYWGQGTQVTVSS”, the “polyreactivity (PSR sort gate)” value is reported as “high polyreactivity”.

Take “QVQLVESGGGLVQAGGSLRLSCADSGSTFPWYAMGWYRQAHGKERELVADISFSGGSTYYSDSVKGRFTISRDNAKNTVYLQMNSLKPEDTAVYYCASETSFLRHAYQSDSFDYWGQGTQVTVSS”: the “polyreactivity (PSR sort gate)” value was “high polyreactivity”.

In the case of “QVQLVESGGGLVQAGGSLRLSCAASGYTFRYYAMGWYRQAHGKERELVDDINSGDITNYADSVKGRFTISRDNAKYTVYLQMNSLKTEDTAVYYCARRTFSLYDYWGQGTQVTVSS”, the “polyreactivity (PSR sort gate)” value is recorded as “low polyreactivity”.

In the case of “QVQLVESGGGLVQAGGSLRLSCAASGRTFEVYTMGWYRQAPGKERELVARIRRGASTNYADSVKGRFTISRDNAKNTVYLQMNSLKPEDTAVYYCNARYTAVAVRWTWPYETQADDYWGQGTQVTVSS”, the “polyreactivity (PSR sort gate)” value is listed as “low polyreactivity”.

Turning to “QVHLVESGGGLVQAGGSLRLSCAASGYIFGYYAMGWYRQAPGKERELVAAISQGGGDTYYADSVKGRFTISRDNAKYTVYLQMNSLKPEDTAVYYCAADYEQSYVLTGTFKYDYWGQGTQVTVSS”, the “polyreactivity (PSR sort gate)” value was “low polyreactivity”.

Take “QVQLVESGGGLVQAGGSLRLSCAASGRTFSRYVMGWYRQAPGKERELVAAISRTGGRTYYADSVKGRFTISRDNAKNTVYLQMNSLKPEDTAVYYCNAGTVLISTYDYWGQGTQVSVSS”: the “polyreactivity (PSR sort gate)” value is recorded as “high polyreactivity”.

Take “QVQIVESGGGLVQAGGSIRLSCAASGTTFNLYAMGWYRQAPGKERQLVAVISWSGGSTYYADSVKGRFTISRDNAKNTVYLQMNSLKPEDTAVYYCAAEYYQWLYPYNEYDYWGQGTQVTVSS”: the “polyreactivity (PSR sort gate)” value is reported as “high polyreactivity”.

Take “QVQLVESGGGLVQAGGSLRLSCAASGSIIGIYAMGWYRQAPGKEREMVAAINRGGSTYYADSVKGRFTISRDNAKNTVYLQMNSLKPEDTAVYYCSASPPYNTEFDYWGQGTQVTVSS”: the “polyreactivity (PSR sort gate)” value is given as “low polyreactivity”.

Take “QVQLVESGGGLVQAGGSLRLSCAASGFTFYGYGMGWYRPAPGKERELVAVITSGGSTKYADSVKGRFTISRDNAKNTVYLQMNSLKPEDTAVYYCNVVGGRYLYSAYDYWGQGTQVTVSS”: the “polyreactivity (PSR sort gate)” value is listed as “low polyreactivity”.

For “QVQLVDSGGRLEQAGGSLRLSCAASGSIFGWNAMGWYRQAPGKERELVAAINWTGGTTYYADSVKGRITISRDNAKYTVYLQMKSLKPADTAVYYCAARLTYHVAGQITRYYYWGQGTQVTVSS”, the “polyreactivity (PSR sort gate)” value was “low polyreactivity”.

“QVQLVESGGGLVQAGGSLRLSCAASGRTFSRNAMGWYRHAPGKEWELVAAISRTGGSTYYADSVKGRFTISRDNAKKTVYLQMNSLKPEDTAVYYCAAGTWGWYAYGYWGLGTQVTVSS”: the “polyreactivity (PSR sort gate)” value is listed as “high polyreactivity”.

Take “QVQLVESGGGLVQAGGSLRLSCAASGSIFPVYAMGWYRQAPGKERELVASISTGGSTYYADSVKGRFTISRDNAKNTVYLQMNSLKPEDTAVYYCSATGWAYGYGYGYWGQGTQVTVSS”: the “polyreactivity (PSR sort gate)” value is “low polyreactivity”.

For the sequence “QVQLVESGGGLVQAGGSLRLSCAASGVTFGGYAMGWYRQAPGKERELVAAISGSGGRTYYADSVKVRFTISRDNAMNTVYLQMNSLKPEDTAVYYCAADRASPYLENYWGQGTQVTVSS”, the “polyreactivity (PSR sort gate)” value is “low polyreactivity”.

For the sequence “QVQLVESGGGLVQAGGSLRLSCAASGSTFYENTMGWYRQATGKERELVAAISFRGGSTYYADSVKGRFTISRDNAKNTVYLQMNSLKPEDTAVYYCNADDSPVPSIRFDYWGQGTQVTVSS”, the “polyreactivity (PSR sort gate)” value is on record as “low polyreactivity”.

In the case of “QVQLVESGGGLVQAGGSLRLSCAASGRIFTYYTMGGYRQAPGKERELVATINSSGGSTYYADSVKGRFTISRDNAKNTVYLQMNRLKPEDTAVYYCNDAYKSQVRYRRYNYWGQGTQVTVSS”, the “polyreactivity (PSR sort gate)” value was “high polyreactivity”.

Take “QVQLVESGGGLVQAGGSLRLSCAASGFIFTNYAMGWYRQAPGKERELVAAITRRGGGTYYADSVKGRFTISRDNAKNTVYLQMNSLKPEDTAVYYCAKYSRLVTANDYDYWGQGTQVTVSS”: the “polyreactivity (PSR sort gate)” value is given as “high polyreactivity”.

On to “QVQLVESGGGLVQAGGSLRLSCAASGRIFRRYTMGWYRQAPGKERELVAAISSGGTTYYADSVKGRFTISRDNAKNTVYLQMNSLKPEDTAVYYCAAPWRSSIPHYEYWGQGTQVTVSS”, for which the “polyreactivity (PSR sort gate)” value is reported as “high polyreactivity”.

On to “QVQLQESGGGLVQAGGSLLLSCAASGSSYDDTYMGWYRQAPGKERELVATIDSGSTTNYADSVKGRNTISRDNAKYTLYLQMNSLKPEDTAVYYCAAADSHIDYFDYWGQGTQVTVSS”, for which the “polyreactivity (PSR sort gate)” value is recorded as “low polyreactivity”.

With “QVQLVESAGGLVQAGGSLRLSCAASGSNFGDYPLGWYRQAPGKERELVAAISVRGGSTYYADSVKGRFTISRDNAKITVYLQMKSLKPEDTAVYYCNKDLYRYPGYDYWGHGTQVTVSS”, the “polyreactivity (PSR sort gate)” value is given as “high polyreactivity”.

Take “QVQLVESGGGLVQAGGSLRLSCAASRLTFQQYAMGWYRQAPGKERELVAAITSDGASTNYADSVKGRFTISRDNAKNTVYLQMNSLKPEDTAVYYCAARRSSRQYRYDYWGQGTQVTVSS”: the “polyreactivity (PSR sort gate)” value is “high polyreactivity”.

As for “QVQLVESGGGLVQAGGSLRLSCAASGIIYKYAMGWYRQAPGKERELVAAISSGASTNYADSVKGRFTISRDNAKNTVYLQMNSLKPEDTAVYYCNVTTGASFEFDYWGQGTQVTVSS”, the “polyreactivity (PSR sort gate)” value is recorded as “low polyreactivity”.

In the case of “QVQLVESGGGLVQAGGSLRLSCAASGSTFCRNAMGWYRQAPGKERELVAAISRRGGSTYYADSVKGRFTISRDNAKNTVYLQMTSLKPEDTAVYYCYRDSSYKHNYDYWAQGTQVTVSS”, the “polyreactivity (PSR sort gate)” value is given as “high polyreactivity”.

(Values after the nanobody polyreactivity screen of Harvey et al. (2022).)
